Reference: patent US20190327974A1, “SYNERGISTS FOR IMPROVED PESTICIDES” (priority 2017, published 2019)

Tests used:
[1] = system: other serine hydrolases (e.g. α-lytic protease); details: cited from earlier work
[2] = system: CCCC(=O)Oc1ccc([N+](=O)[O-])cc1; experiment: Inhibition of wild-type LcαE7, 4-nitrophenol butyrate hydrolysis; assay type: biochemical, Lucilia cuprina; details: other: wildtype αE7, room temperature; pH 7.5
Text: (§1) The term “carboxyethylesterase” (CBE), refers to insect carboxylesterases from the alpha and beta and non-microsomal gene clusters, as defined in Oakeshott, Claudianos, Campbell, Newcomb and Russell, “Biochemical Genetic and Genomics of Insect Esterases”, pp 309-381, Chapter 10, Volume 5, 2005, Eds. Gilbert, Iatrou, Gill, published—Elsevier which is incorporated herein by reference. The αE7 CBE is an example of an alpha esterase, and is found in the sheep blowfly, Lucilia cuprina, with homologous genes being present in other insect pests. […]
(§2) His6-tagged proteins were expressed in BL21(DE3) E. coli (Invitrogen) at 26° C. for 18 hours. […] Protein concentration was determined by measuring the absorbance at 280 nm with an extinction coefficient calculated using the Protparam online server (Gasteiger, E. et al. Protein identification and analysis tools on the ExPASy server. Proteomics Protoc. Handb. 571-607 (2005). doi:10.1385/1-59259-890-0:571).
(§3) Inhibition of wild-type αE7 and the Gly137Asp αE7 variant was determined by a competition assay between the native-substrate analogue 4-nitrophenol butyrate (Sigma) and the boronic acid compounds. Initially, the Michalis constant (KM) with 4-nitrophenol butyrate was measured for both enzymes to determine an appropriate concentration of substrate for use in the competition assays. […]

[3] = system: CCCC(=O)Oc1ccc([N+](=O)[O-])cc1; experiment: Inhibition of Gly137Asp LcαE7, 4-nitrophenol butyrate hydrolysis; assay type: biochemical, Lucilia cuprina; details: other: Gly137Asp αE7, room temperature; pH 7.5
Text: as §1, §2, §3

In the case of OB(O)c1ccccc1 [PBA, phenylboronic acid], the “inhibition of other serine hydrolases” value [1] is given as “micromolar to millimolar inhibition”.

“Lucilia cuprina αE7 carboxylesterase (LcαE7), wild type, GenBank AAB67728.1 (Lucilia cuprina)” gave a Km [2] of 15 µM.

For “Lucilia cuprina αE7 carboxylesterase (LcαE7) variant Gly137Asp (Lucilia cuprina; G137D)”, the Km [3] was 250 µM.
